Test results from US12447213B2, “Modulation of novel immune checkpoint targets” (The Brigham and Women's Hospital, Inc., priority 2016, dated 2025).

B1: CD166: recombinant CD166; transmembrane glycoprotein (type I) encoded by the ALCAM gene, novel ligand of ILT-3 (protein, UniProt Q13740 28-583, looked up)
CD166 antigen: WYTVNSAYGDTIIIPCRLDVPQNLMFGKWKYEKPDGSPVFIAFRSSTKKSVQYDDVPEYKDRLNLSENYTLSISNARISDEKRFVCMLVTEDNVFEAPTIVKVFKQPSKPEIVSKALFLETEQLKKLGDCISEDSYPDGNITWYRNGKVLHPLEGAVVIIFKKEMDPVTQLYTMTSTLEYKTTKADIQMPFTCSVTYYGPSGQKTIHSEQAVFDIYYPTEQVTIQVLPPKNAIKEGDNITLKCLGNGNPPPEEFLFYLPGQPEGIRSSNTYTLTDVRRNATGDYKCSLIDKKSMIASTAITVHYLDLSLNPSGEVTRQIGDALPVSCTISASRNATVVWMKDNIRLRSSPSFSSLHYQDAGNYVCETALQEVEGLKKRESLTLIVEGKPQIKMTKKTDPSGLSKTIICHVEGFPKPAIQWTITGSGSVINQTEESPYINGRYYSKIIISPEENVTLTCTAENQLERTVNSLNVSAISIPEHDEADEISDENREKVNDQAKLIVGIVVGLLLAALVAGVVYWLYMKKSKTASKHVNKDLGNMEENKKLEENNHKTEA

Assays:
[1] = vaccination alone or combined with a low dose of estramustine; cited from earlier work
pathogenic Th17 cells = assay: Pathogenic Th17 differentiation in the presence of plate bound recombinant CD166, cytokine production by FACS; type: cell-based, mouse; details: 10 ug/ml, Gp49 dependent, WT or Gp49b KO
Method: FIG. 49. Plate-bound CD166 inhibits GM-CSF and enhances IL10 production from pathogenic Th17 cells in a Gp49 dependent way. Naïve T cells from spleen of WT or Gp49b KO mouse were differentiated into pathogenic in vitro with anti-CD3/CD28 Dynabeads in the presence of plate bound recombinant CD166 (10 ug/ml) or BSA (10 ug/ml) as control. Cytokine production from Th17 cells were measured by FACS on day 4.
(§1) To investigate the role of CD166, CD4+CD44^loCD62L^hi naïve CD4 T cells were sorted by FACS and cultured in vitro with plate-bound anti-CD3 (2 ug/ml) and anti-CD28 (2 ug/ml) plus the following polarizing cytokines: IL12 (20 ng/ml) for Th1 cells; IL4 (20 ng/ml) for Th2 cells; TGFb (5 ng/ml) for iTreg cells; IL27 (25 ng/ml) for Tr1 cells; TGFb (2 ng/ml) and IL6 (25 ng/ml) for non-pathogenic Th17; TGFb (2 ng/ml), IL6 (25 ng/ml) and IL23 (20 ng/ml), or, […] (25 ng/ml) and IL23 (20 ng/ml) for pathogenic Th17. Expression of CD166 was measured by FACS on day 3. […] (FIG. 48). To determine the effect of plate-bound CD166, naïve T cells from spleen of WT or Gp49b KO mouse were differentiated into pathogenic in vitro with anti-CD3/CD28 Dynabeads in the presence of plate bound recombinant CD166 (10 ug/ml) or BSA (10 ug/ml) as control. Cytokine production from Th17 cells were measured by FACS on day 4. […] Next, the role of exogenous CD166 was assayed. […] Stained cells were analyzed by FACS.

Th17 cells = assay: Binding of recombinant His-tagged CD166 to Th17 cells (FACS); parameters: species or system mice; details: exogenous, 10 ug/ml; HBSS
Method: FIG. 50. Exogenous CD166 binds weakly to Th17 cells (in HBSS). In vitro differentiated pathogenic and non-pathogenic Th17 cells were incubated with recombinant His-tagged CD166 (10 ug/ml) in indicated buffer at room temperature for 30 min, washed twice, and then incubated with anti-His antibody for 10 min. Stained cells were analyzed by FACS.
as §1

Molecule | patients with a ≥50% decrease in serum prostate specific antigen (PSA) [1] | GM-CSF production from pathogenic Th17 cells (pathogenic Th17 cells) | IL10 production from pathogenic Th17 cells (pathogenic Th17 cells) | binding to Th17 cells (Th17 cells)
C[C@]12CC[C@@H]3c4ccc(OC(=O)N(CCCl)CCCl)cc4CC[C@H]3[C@@H]1CC[C@@H]2O [estramustine] | 54% | – | – | –
B1 | – | inhibits | enhances | binds weakly
